From patent US7537764
pKd: −log10 of the molar value.

Key:
[1] = biological target: WNV-like particles with E protein mutation A365V (West Nile virus strain 382-99) (UniProt Q9Q6P4)
[2] = biological target: West Nile virus strain USA99b (strain 385-99), whole virus (West Nile virus strain 385-99 (USA99b)); assay: ELISA on irradiated WNV; antibody diluted 1:25
[3] = biological target: West Nile virus strain USA99b (strain 385-99), whole virus (West Nile virus strain 385-99 (USA99b)); assay: SPR (BIAcore3000), WNV captured via immobilized CR4283, IgG injected, bivalent analyte model, average of duplicates
[4] = biological target: West Nile virus strain USA99b (strain 385-99), whole virus (West Nile virus strain 385-99 (USA99b)); assay: ELISA on irradiated WNV; antibody diluted 1:5
[5] = biological target: West Nile virus strain USA99b (strain 385-99), whole virus (West Nile virus strain 385-99 (USA99b)); assay: ELISA on irradiated WNV; antibody diluted 1:125
[6] = biological target: West Nile virus strain USA99b (strain 385-99), whole virus (West Nile virus strain 385-99 (USA99b)); assay: ELISA on irradiated WNV; antibody at 20.000 µg/ml

## WNV-E protein specific murine antibody 7H2
[1]
  fold binding against wild-type VLP: 2 fold
[2]
  OD 492 nm: 2.12 OD
[3]
  pKd: 9.49
[4]
  OD 492 nm: 2.09 OD
[5]
  OD 492 nm: 2.13 OD

## anti-rabies virus antibody (negative control)
[6]
  OD 492 nm: 0.051 OD
[2]
  OD 492 nm: 0.056 OD
[4]
  OD 492 nm: 0.062 OD
[5]
  OD 492 nm: 0.046 OD
